Residue numbers refer to the chain shown, from its start.
B1: phosphorylated PmrA (G211) protein from S. enterica serovar Typhimurium (natural protein)
chain: MKILIVEDDTLLLQGLILAAQTEGYACDGVSTARAAEHSLESGHYSLMVLDLGLPDEDGLHFLTRIRQKKYTLPVLILTARDTLNDRITGLDVGADDYLVKPFALEELHARIRALLRRHNNQGESELTVGNLTLNIGRHQAWRDGQELTLTPKEYALLSRLMLKAGSPVHREILYNDIYNWDNEPSTNTLEVHIHNLRDKVGKSRIRTVRGFGYMLVATEES
modifications: phosphorylated (PmrA-P; phospho-Asp, residue number not given)
notes: PmrA, response regulator of the PmrA/PmrB two-component system, S. enterica serovar Typhimurium 14028s; glycine at position 211; In gel filtration a mixture of monomer and dimer; probably the whole 222-residue protein; also called PmrA-P; PmrA-H6
B2: phosphorylated PmrA (E211) protein from S. enterica serovar Paratyphi B (natural protein)
chain: B1 chain with G211E
modifications: phosphorylated (PmrA-P; phospho-Asp, residue number not given)
notes: PmrA, response regulator of the PmrA/PmrB two-component system, natural allele of S. enterica serovar Paratyphi B (SPV) SARA46; differs from the S. typhimurium PmrA by a single amino acid, glutamate instead of glycine at position 211; also called PmrA-H6

Target: the molecule itself
Experiment: SEC; analytical gel filtration; PmrA (50 µM) phosphorylated with pGEX-PmrBc T156R beads, 100 µl applied individually to Superdex 200 10/300 GL at 4°C in 1× TBS/1 mM MgCl2/1 mM DTT/10% glycerol, 0.5 ml/min, A280; monomer to dimer

Protein | Dimer: Monomer (ratio of peak heights, A280) | stoichiometry N
B1 | 0.29 | 2
B2 | 0.11 | 2
